The results in this text go back to patent EP2254592B1.

The test deals with purified folded MHC-complex (Example 57). The test can be described thus: sandwich ELISA, W6/32 coated, HRP anti-β2m detection, OD450.

For “W6/32 mouse-anti-HLA-ABC antibody (Dako M0736)”, the OD450 ratio to the negative control β2m was over 6 fold.
